Reference: article PMC6716841, “Modification of acetoacetyl-CoA reduction step in Ralstonia eutropha for biosynthesis of poly(3-hydroxybutyrate-co-3-hydroxyhexanoate) from structurally unrelated compounds” (Microbial Cell Factories, 2019)

Substrate: CC(=O)CC(=O)SCCNC(=O)CCNC(=O)[C@H](O)C(C)(C)COP(=O)(O)OP(=O)(O)OC[C@H]1O[C@@H](n2cnc3c(N)ncnc32)[C@H](O)[C@@H]1OP(=O)(O)O
Assay: purified protein
Assay type: biochemical, Cupriavidus necator
Settings: 200 μM NADPH, 1 to 20 μM acetoacetyl-CoA, 100 mM Tris-HCl pH 8.0, 30 °C
[1] = substrate inhibition above 12 μM

Protein | Km [1] [µM] | Vmax [1] [µmol/min/mg] | kcat [1] [s⁻¹] | kcat/Km [1] [M⁻¹ s⁻¹] | Km [µM] | Vmax [µmol/min/mg] | kcat [s⁻¹] | kcat/Km [M⁻¹ s⁻¹]
PhaB1 (Cupriavidus necator H16) (protein) MTQRIAYVTGGMGGIGTAICQRLAKDGFRVVAGCGPNSPRREKWLEQQKALGFDFIASEGNVADWDSTKTAFDKVKSEVGEVDVLINNAGITRDVVFRKMTRADWDAVIDTNLTSLFNVTKQVIDGMADRGWGRIVNISSVNGQKGQFGQTNYSTAKAGLHGFTMALAQEVATKGVTVNTVSPGYIATDMVKAIRQDVLDKIVATIPVKRLGLPEEIASICAWLSSEESGFSTGADFSLNGGLHMG | 1.99 ± 0.23 | 162 | 71.2 ± 2.7 | 3.58e+07 ± 4.4e+06 |  |  |  | 
PhaB1 (Cupriavidus necator H16; N142V) (protein) MTQRIAYVTGGMGGIGTAICQRLAKDGFRVVAGCGPNSPRREKWLEQQKALGFDFIASEGNVADWDSTKTAFDKVKSEVGEVDVLINNAGITRDVVFRKMTRADWDAVIDTNLTSLFNVTKQVIDGMADRGWGRIVNISSVVGQKGQFGQTNYSTAKAGLHGFTMALAQEVATKGVTVNTVSPGYIATDMVKAIRQDVLDKIVATIPVKRLGLPEEIASICAWLSSEESGFSTGADFSLNGGLHMG |  |  |  |  | 58.5 ± 18.1 | 175 | 76.7 ± 2.7 | 1.31e+06 ± 470000
PhaB1 (Cupriavidus necator H16; N142V/Y185F) (protein) MTQRIAYVTGGMGGIGTAICQRLAKDGFRVVAGCGPNSPRREKWLEQQKALGFDFIASEGNVADWDSTKTAFDKVKSEVGEVDVLINNAGITRDVVFRKMTRADWDAVIDTNLTSLFNVTKQVIDGMADRGWGRIVNISSVVGQKGQFGQTNYSTAKAGLHGFTMALAQEVATKGVTVNTVSPGFIATDMVKAIRQDVLDKIVATIPVKRLGLPEEIASICAWLSSEESGFSTGADFSLNGGLHMG |  |  |  |  | 109 ± 38 | 53.9 | 23.7 ± 3.7 | 220000 ± 80000
PhaB1 (Cupriavidus necator H16; Y185F) (protein) MTQRIAYVTGGMGGIGTAICQRLAKDGFRVVAGCGPNSPRREKWLEQQKALGFDFIASEGNVADWDSTKTAFDKVKSEVGEVDVLINNAGITRDVVFRKMTRADWDAVIDTNLTSLFNVTKQVIDGMADRGWGRIVNISSVNGQKGQFGQTNYSTAKAGLHGFTMALAQEVATKGVTVNTVSPGFIATDMVKAIRQDVLDKIVATIPVKRLGLPEEIASICAWLSSEESGFSTGADFSLNGGLHMG |  |  |  |  | 86.2 ± 20.6 | 127 | 55.8 ± 7.6 | 650000 ± 180000
